The values that follow are results of earlier work, collected in PMC3234256.

This series addresses Lys73 (UniProt position 71, MMSTFKVLLCG). Put plainly: NMR.

Regarding “TEM-1 beta-lactamase (class A) (Escherichia coli)”, the pKa entry was “above 10”.
